This data set can be described thus: amyloid nucleation score (Sup35N fusion, yeast selection) (log enrichment); library NNK2; higher = more nucleation; inactive = no reads after selection. Summed up:
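In psi-negative yeast, Sup35N fusions carrying peptides of 20 random codons were induced with 100 μM copper sulfate for 24 hours. The cells then grew 7 days at 30°C on medium lacking adenine and uracil, and plasmid inserts from input and output were Illumina-sequenced, excluding sequences with under 100 input reads. Nucleation score is the DiMSum log enrichment of output over input reads, centred on the mode score of non-aggregating sequences.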

± gives the uncertainty stated by the source.

Regarding VWEIEGEPPWVQSVCSWDPR, the amyloid nucleation score was 3.85 ± 0.057.

Take WNTLKVAGSVGGTAVDQVAV: the amyloid nucleation score came out at 1.33 ± 0.34.

INMTLELDSVRRNLLYAGGG: the amyloid nucleation score is -0.142 ± 0.55.

PDLRKDYAWLLLFLVRVRGD gave an amyloid nucleation score of 4.43 ± 0.085.

On to SVILILSVGLLTIYLSRNG, for which the amyloid nucleation score stood at 2.76 ± 0.078.

Take LMNLVVG: the amyloid nucleation score is -0.701 ± 0.44.

For the substance SGYQGKYRSMSPRFKFSWVG, the amyloid nucleation score is -0.392 ± 0.63.

GMPNFSVFVWAF showed an amyloid nucleation score of 2.59 ± 0.082.

The substance NLGYYTG returned an amyloid nucleation score of -0.868 ± 1.1.

As to SVFRND, the amyloid nucleation score was -0.28 ± 0.3.

Take NSDRL: the amyloid nucleation score was -0.794 ± 0.45.

For ANTFIPFFGISSVRSGRNAA, the amyloid nucleation score was determined as 2.65 ± 0.11.

On to QLVLT, for which the amyloid nucleation score amounted to 1.14 ± 0.21.

Turning to SEWSTYLCSSNI, the amyloid nucleation score entry is “inactive”.

The substance GNRDMGVVNGRYVTAVTS came in with an amyloid nucleation score of 0.422 ± 0.26.

Substance DSCCIFIL came in with an amyloid nucleation score of 5.67 ± 0.058.

The substance RWHLFSITYLKVLDWDCCLW registered an amyloid nucleation score of 5.45 ± 0.034.

As for FNCGASKNSLKNEGKW, the amyloid nucleation score is -0.925 ± 0.63.

For IRFQCRSLRFTAIGGQVSWI, the amyloid nucleation score turned out to be 3.48 ± 0.095.

Regarding CTCKRLVLRVVVEWA, the amyloid nucleation score was 1.82 ± 0.12.

MPNNVPEEN: the amyloid nucleation score was determined as 0.216 ± 0.62.

As to ISESLSRWART, the amyloid nucleation score amounted to 3.69 ± 0.12.

SHLCQVLVVLGGASTV displayed an amyloid nucleation score of 6.41 ± 0.077.

CWDCKLPHRPGVFMRNNHFK displayed an amyloid nucleation score of -0.015 ± 0.45.

Regarding LVKMTLGCATSMLRCLMLSV, the amyloid nucleation score stood at 0.457 ± 0.24.

Substance AFGFSI yielded an amyloid nucleation score of -1.3 ± 0.42.

CDLKERTEYMHFLLTFYLVR came in with an amyloid nucleation score of -0.891 ± 0.36.

Substance QCWGMERSERSIRFVTRFFR gave an amyloid nucleation score of 3.5 ± 0.1.

With FRRCGPDGGIWLDLAACKKI, the amyloid nucleation score is 0.1 ± 0.38.

LEKKLFVKVYRHSICIGVAE showed an amyloid nucleation score of 1.9 ± 0.43.

Substance AFYKFMSEHSSAVHCDPMHD had an amyloid nucleation score of -0.025 ± 0.76.

KACWCLYQGLTLSAQVQLWP came in with an amyloid nucleation score of 1.26 ± 0.26.

In turn, YMYDVRICPFDNWVYRRNEC gave an amyloid nucleation score of -0.107 ± 0.74.

Turning to NFSTGEGMYRNYNWDSQVRV, the amyloid nucleation score entry was “inactive”.

As for HVGLKSLHTMASWFMFDHNI, the amyloid nucleation score result is “inactive”.

Substance SLAQDVRGYGLCNGKTNIVW showed an amyloid nucleation score of -0.867 ± 0.35.

KRYGAVHDVCMRVSFNASQV came in with an amyloid nucleation score of 1.2 ± 0.32.

SIKVRMGEARVMNLVNTLGV: the amyloid nucleation score result was “inactive”.

Regarding FFDSLGAGRYNRIRRWLSVV, the amyloid nucleation score is -1.33 ± 0.44.

GLLEAWEDFLGRMHGVGLVC gave an amyloid nucleation score of 4.15 ± 0.051.

RLRYM yielded an amyloid nucleation score of -0.631 ± 0.76.

In turn, NINRAQHISDVSCPDENLCI displayed an amyloid nucleation score of 4.07 ± 0.11.

With RGSFYNGRS, the amyloid nucleation score stood at 0.049 ± 0.76.

Substance YNGMAHGCHVGASSRRLE came in with an amyloid nucleation score of 0.117 ± 0.32.

For NKTPYIDFVLTR, the amyloid nucleation score came to 0.236 ± 1.1.

TTVERWVVFRKVQMRYRIRL: the amyloid nucleation score worked out at 5.396 ± 0.049.

The substance QTMMTTRKCSPLRLVLSQRL had an amyloid nucleation score of -0.161 ± 1.1.

MFMANGSWTYEEVIE gave an amyloid nucleation score of 1.47 ± 0.16.

VDFCVDVLFC: the amyloid nucleation score was -1.06 ± 1.1.

Take NTWTCAQPRVTLLAQLYELN: the amyloid nucleation score amounted to 3.1 ± 0.12.

RDVFDMSSPTIAQCNVVRGM returned an amyloid nucleation score of -0.448 ± 0.32.

As to AFWRLAVLFVVCRIIF, the amyloid nucleation score was found to be 0.13 ± 0.65.

As for AHTRSAMGDMPNVNGFLKCT, the amyloid nucleation score result was “inactive”.

For the substance VVENRALLYGGFVR, the amyloid nucleation score amounted to 0.135 ± 0.63.

NCSKENKPGVIETISVGMGP yielded an amyloid nucleation score of 1.01 ± 0.48.

The substance YVEFCFLTCSASGLAWSLRW gave an amyloid nucleation score of 0.053 ± 0.31.

Turning to CIVCFVFMLKRALLLHFCIA, the amyloid nucleation score is -0.81 ± 1.

Turning to SSYRLDAWVKKLFSLSQRKG, the amyloid nucleation score was -0.052 ± 0.32.

DHITVVAIKKEHLVEIIYVY: the amyloid nucleation score was -0.904 ± 0.35.

For LDVYQ, the amyloid nucleation score is -0.711 ± 0.64.

On to DCLLGNSSPAV, for which the amyloid nucleation score is -0.594 ± 1.1.

The substance YLCPTSGKLCGSSGKTMVTV had an amyloid nucleation score of -1.18 ± 0.48.

In turn, WKIDWTNVNPFVRPVGTTNG displayed an amyloid nucleation score of 0.917 ± 0.33.

Regarding PLGTSTTSFRSAVFQGMTWL, the amyloid nucleation score entry was “inactive”.

For the substance FSWLSPMWYMLNDRKLYGNP, the amyloid nucleation score is 0.779 ± 0.42.

GIKFCEPCDGGHGDGIWPLT registered an amyloid nucleation score of 0.708 ± 0.29.

With CHSGVFRVKSCTEYRMGLYS, the amyloid nucleation score result was “inactive”.

For DLLRPSGMFFCYGQFYCLKC, the amyloid nucleation score was -1.05 ± 0.39.

Substance VRYKSYMDVS gave an amyloid nucleation score of 0.87 ± 0.48.

As for FKFVGNSQAQVWNMCESNDS, the amyloid nucleation score is -0.369 ± 0.64.

For the substance SVALSQVLEKVWESVPKELN, the amyloid nucleation score is 0.62 ± 0.62.

Substance ASGVYHDSFRRLCCMGDLSC came in with an amyloid nucleation score of -0.121 ± 0.18.

In turn, ALWCRENFINCYIPYLQMFF showed an amyloid nucleation score of 6.219 ± 0.036.

With DQFSGNACSIIVLVSALACF, the amyloid nucleation score is 3.01 ± 0.17.

The substance FLSKFSCEVKTPDLMSCGKG gave an amyloid nucleation score of 4.04 ± 0.096.

As for GDWSYGMGFNMVAMRNWEYL, the amyloid nucleation score was -0.512 ± 0.63.

For the substance HTWGAHRFCRWRNTSASDSW, the amyloid nucleation score was found to be 8.703 ± 0.03.

With ILVYDEVTSYQDPYFS, the amyloid nucleation score is -0.69 ± 0.63.

With MDLCINNVWWEAKTSSLGLL, the amyloid nucleation score entry was “inactive”.

As to NRPLCSFDTEFDLYEQIHLR, the amyloid nucleation score came to 4.38 ± 0.086.

In the case of GDSVLLYKWYMLGCWPIGSC, the amyloid nucleation score was 4.31 ± 0.056.

Take RCTRSR: the amyloid nucleation score was determined as 3.4 ± 0.12.

As to YIRIYRVTMRFNCINVAPWG, the amyloid nucleation score is 6.928 ± 0.048.

Consider FCIVQIMDVTVLGSTSATID, for which the amyloid nucleation score was determined as 5.592 ± 0.054.

GIMSVGTAKWRDGQPSACRK returned an amyloid nucleation score of 0.996 ± 0.37.

Regarding CTVTK, the amyloid nucleation score came out at 1.45 ± 0.11.

With RSFMVRRFVNANIEIMIRRI, the amyloid nucleation score result is “inactive”.

Substance WSYGSNLPWLDKPNWHHETW registered an amyloid nucleation score of 1.2 ± 0.47.

ESYTIDCRVFGLRGKGSTRA: the amyloid nucleation score turned out to be 0.695 ± 0.46.

TSPNFLSRLQVRYYRIRVSL yielded an amyloid nucleation score of -0.026 ± 0.35.

For the substance SNCSKCVKVYTSPCLWSLCG, the amyloid nucleation score came out at 3.46 ± 0.083.

For the substance LIFFCLFEYRLRLHCNRRDH, the amyloid nucleation score is -1.34 ± 0.49.

KGCEIFLVLAMCDKCSGFL had an amyloid nucleation score of 3.69 ± 0.12.

On to YSLTYLAFSFQKNNTIFLTY, for which the amyloid nucleation score was 0.358 ± 0.65.

DLPYSSVIRKYMSKMWLHMN registered an amyloid nucleation score of 0.218 ± 0.36.

As to FTRTWLCIHAEYARCLGTCV, the amyloid nucleation score came to 5.05 ± 0.053.

NYIMWLWQQTGWSNGWCALI showed an amyloid nucleation score of 0.312 ± 0.61.

In turn, YITFLVWFQNFGYTGHD returned an amyloid nucleation score of 7.162 ± 0.062.

Turning to GKCTGRPPMNHSSLL, the amyloid nucleation score turned out to be 0.832 ± 0.39.

Regarding VSKPQKRFKDEFYSLLSVKF, the amyloid nucleation score was -0.55 ± 0.76.

ICIHYANNLLVNMRTKMCHK displayed an amyloid nucleation score of 9.369 ± 0.054.

Turning to GEAMSMTEQMTLTRYNYFMY, the amyloid nucleation score entry is “inactive”.

(Values after the supplement of paper PMC12042874.)
